Earlier results on one substance are cited in publication PMC8266389.

Among the targets are ACTRIIB (Homo sapiens) (UniProt Q13705); ACTRIIA (Homo sapiens) (UniProt P27037); BMPRII (Homo sapiens) (UniProt Q13873); Cripto-1 (Homo sapiens) (UniProt P13385); Cryptic (Homo sapiens) (UniProt P0CG37); ALK4 (Homo sapiens) (UniProt P36896).
Chain of UniProt P27037 (P27037 20-135): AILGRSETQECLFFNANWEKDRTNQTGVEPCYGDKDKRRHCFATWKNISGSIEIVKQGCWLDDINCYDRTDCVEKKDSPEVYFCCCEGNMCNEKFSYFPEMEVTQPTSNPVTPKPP
Chain of UniProt Q13705 (Q13705 19-137): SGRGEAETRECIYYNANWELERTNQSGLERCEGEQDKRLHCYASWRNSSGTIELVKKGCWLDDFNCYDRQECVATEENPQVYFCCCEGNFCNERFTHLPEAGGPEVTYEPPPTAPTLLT
Chain of UniProt P0CG37 (P0CG37 26-158): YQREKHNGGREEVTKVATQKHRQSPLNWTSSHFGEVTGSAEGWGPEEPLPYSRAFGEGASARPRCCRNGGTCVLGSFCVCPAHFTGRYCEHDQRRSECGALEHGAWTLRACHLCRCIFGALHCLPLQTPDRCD
Chain of UniProt Q13873 (Q13873 27-150): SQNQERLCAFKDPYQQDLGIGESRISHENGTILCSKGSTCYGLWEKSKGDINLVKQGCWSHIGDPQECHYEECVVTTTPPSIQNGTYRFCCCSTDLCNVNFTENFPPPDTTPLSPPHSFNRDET
Chain of UniProt P36896 (P36896 24-126): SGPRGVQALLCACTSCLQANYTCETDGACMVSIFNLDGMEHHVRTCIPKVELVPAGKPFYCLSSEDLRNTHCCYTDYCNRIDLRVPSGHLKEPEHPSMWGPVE
Chain of UniProt P13385 (P13385 31-150): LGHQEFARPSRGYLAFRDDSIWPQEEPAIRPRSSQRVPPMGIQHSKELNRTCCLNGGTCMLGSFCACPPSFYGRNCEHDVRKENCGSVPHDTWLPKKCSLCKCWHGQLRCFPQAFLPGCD

For the substance Nodal (from UniProt Q96S42), the Kd in the series with ACTRIIB (Homo sapiens) was 10 nM; with ACTRIIA (Homo sapiens) it was 100 nM; with BMPRII (Homo sapiens), 0.149 nM; with Cripto-1 (Homo sapiens), 16 nM; in the series with Cryptic (Homo sapiens), 2000 nM; in the series with ALK4 (Homo sapiens), 15 nM.

In general, Kd refers to the free concentration of one partner at which half of the binding sites on the other are occupied at equilibrium, for simple one-to-one binding.
